Tested on: Escherichia coli TOP10
Assay: shrunken log2 fold change of peptide-encoding DNA abundance (4.5 h post-induction vs induction); higher = less antimicrobial activity (less host growth inhibition)
Conditions: time post-induction: 4.5 h; library: site-saturation at positions 5, 18, 19, 20
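Further: peptides expressed intracellularly from a pBAD plasmid library in pooled LB shake-flask culture, induced with 0.3% L-arabinose, DNA abundance read by NGS, three biological replicates, DESeq2 with apeglm shrinkage.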

RRIRVRPPRLPRPRPRPGVNPRP and RRIRVRPPRLPRPRPRPGVTPRP are within 0.2 log units of each other in “shrunken log2 fold change” value: 0.101 for the first, 0.0341 for the second.

Compared with RRIRVRPPRLPRPRPRPGWLPRP, RRIRVRPPRLPRPRPRPGYHPRP is lower in “shrunken log2 fold change” value: 0.543 for the first, -0.364 for the second.

First: RRIRVRPPRLPRPRPRPGYRPRP
Second: RRIRVRPPRLPRPRPRPHDNPRP
The “shrunken log2 fold change” value of the first is higher: -0.203 for the first, -0.445 for the second.

Going from RRIRVRPPRLPRPRPRPHDPPRP to RRIRVRPPRLPRPRPRPHDVPRP, the “shrunken log2 fold change” value falls from 0.0847 to -0.116.

First: RRIRVRPPRLPRPRPRPHFNPRP
Second: RRIRVRPPRLPRPRPRPHGNPRP
The “shrunken log2 fold change” value of the first is lower: -0.705 for the first, -0.0331 for the second.

Going from RRIRVRPPRLPRPRPRPHGWPRP to RRIRVRPPRLPRPRPRPHHDPRP, the “shrunken log2 fold change” value falls from 0.492 to -0.37.

Going from RRIRVRPPRLPRPRPRPHHGPRP to RRIRVRPPRLPRPRPRPHIGPRP, the “shrunken log2 fold change” value rises from -0.348 to -0.0312.

RRIRVRPPRLPRPRPRPHKKPRP and RRIRVRPPRLPRPRPRPHKQPRP are within 0.2 log units of each other in “shrunken log2 fold change” value: -0.169 for the first, 0.0253 for the second.

Compared with RRIRVRPPRLPRPRPRPHKTPRP, RRIRVRPPRLPRPRPRPHLDPRP is higher in “shrunken log2 fold change” value: -0.127 for the first, 0.0818 for the second.

First: RRIRVRPPRLPRPRPRPHLFPRP
Second: RRIRVRPPRLPRPRPRPHMEPRP
The “shrunken log2 fold change” value of the first is higher: 0.461 for the first, -0.0402 for the second.

Compared with RRIRVRPPRLPRPRPRPHMPPRP, RRIRVRPPRLPRPRPRPHNQPRP is higher in “shrunken log2 fold change” value: -0.725 for the first, -0.471 for the second.

Going from RRIRVRPPRLPRPRPRPHPAPRP to RRIRVRPPRLPRPRPRPHPRPRP, the “shrunken log2 fold change” value rises from 0.296 to 0.555.

RRIRVRPPRLPRPRPRPHQDPRP and RRIRVRPPRLPRPRPRPHREPRP are within 0.2 log units of each other in “shrunken log2 fold change” value: -0.264 for the first, -0.223 for the second.

RRIRVRPPRLPRPRPRPHSMPRP and RRIRVRPPRLPRPRPRPHTHPRP are within 0.2 log units of each other in “shrunken log2 fold change” value: -0.333 for the first, -0.414 for the second.

RRIRVRPPRLPRPRPRPHVFPRP and RRIRVRPPRLPRPRPRPHVKPRP are within 0.2 log units of each other in “shrunken log2 fold change” value: -0.0624 for the first, -0.0504 for the second.

Compared with RRIRVRPPRLPRPRPRPHWMPRP, RRIRVRPPRLPRPRPRPIDYPRP is higher in “shrunken log2 fold change” value: -0.32 for the first, 0.0808 for the second.

RRIRVRPPRLPRPRPRPIELPRP and RRIRVRPPRLPRPRPRPIEPPRP are within 0.2 log units of each other in “shrunken log2 fold change” value: -0.167 for the first, -0.065 for the second.

RRIRVRPPRLPRPRPRPIFRPRP and RRIRVRPPRLPRPRPRPIGDPRP are within 0.2 log units of each other in “shrunken log2 fold change” value: 0.0423 for the first, 0.0238 for the second.

First: RRIRVRPPRLPRPRPRPIHRPRP
Second: RRIRVRPPRLPRPRPRPIKMPRP
The “shrunken log2 fold change” value of the first is higher: -0.3 for the first, -0.697 for the second.

RRIRVRPPRLPRPRPRPIKRPRP and RRIRVRPPRLPRPRPRPIKTPRP are within 0.2 log units of each other in “shrunken log2 fold change” value: 0.048 for the first, 0.059 for the second.

RRIRVRPPRLPRPRPRPIPIPRP and RRIRVRPPRLPRPRPRPIPWPRP are within 0.2 log units of each other in “shrunken log2 fold change” value: -0.106 for the first, -0.232 for the second.

RRIRVRPPRLPRPRPRPIREPRP and RRIRVRPPRLPRPRPRPITWPRP are within 0.2 log units of each other in “shrunken log2 fold change” value: -0.152 for the first, -0.182 for the second.

RRIRVRPPRLPRPRPRPIWDPRP and RRIRVRPPRLPRPRPRPIWGPRP are within 0.2 log units of each other in “shrunken log2 fold change” value: 0.0206 for the first, 0.0376 for the second.

RRIRVRPPRLPRPRPRPKCTPRP and RRIRVRPPRLPRPRPRPKDRPRP are within 0.2 log units of each other in “shrunken log2 fold change” value: -0.0595 for the first, -0.0469 for the second.

First: RRIRVRPPRLPRPRPRPKENPRP
Second: RRIRVRPPRLPRPRPRPKFKPRP
The “shrunken log2 fold change” value of the first is higher: 0.184 for the first, -0.2 for the second.

RRIRVRPPRLPRPRPRPKGYPRP and RRIRVRPPRLPRPRPRPKIMPRP are within 0.2 log units of each other in “shrunken log2 fold change” value: -0.0404 for the first, -0.193 for the second.

Going from RRIRVRPPRLPRPRPRPKIVPRP to RRIRVRPPRLPRPRPRPKMLPRP, the “shrunken log2 fold change” value falls from 0.2 to -0.13.

First: RRIRVRPPRLPRPRPRPKNVPRP
Second: RRIRVRPPRLPRPRPRPKNYPRP
The “shrunken log2 fold change” value of the first is higher: -0.0901 for the first, -0.359 for the second.

RRIRVRPPRLPRPRPRPKPAPRP and RRIRVRPPRLPRPRPRPKPEPRP are within 0.2 log units of each other in “shrunken log2 fold change” value: 0.431 for the first, 0.326 for the second.

First: RRIRVRPPRLPRPRPRPKPVPRP
Second: RRIRVRPPRLPRPRPRPKRHPRP
The “shrunken log2 fold change” value of the first is higher: 0.42 for the first, 0.0244 for the second.

First: RRIRVRPPRLPRPRPRPKRPPRP
Second: RRIRVRPPRLPRPRPRPKTLPRP
The “shrunken log2 fold change” value of the first is higher: 0.32 for the first, -0.0985 for the second.

RRIRVRPPRLPRPRPRPKVIPRP and RRIRVRPPRLPRPRPRPKVNPRP are within 0.2 log units of each other in “shrunken log2 fold change” value: -0.21 for the first, -0.288 for the second.

Going from RRIRVRPPRLPRPRPRPKYVPRP to RRIRVRPPRLPRPRPRPLCHPRP, the “shrunken log2 fold change” value falls from -0.163 to -0.364.

Going from RRIRVRPPRLPRPRPRPLCKPRP to RRIRVRPPRLPRPRPRPLEGPRP, the “shrunken log2 fold change” value rises from -0.394 to 0.138.

Going from RRIRVRPPRLPRPRPRPLFCPRP to RRIRVRPPRLPRPRPRPLGGPRP, the “shrunken log2 fold change” value rises from -0.103 to 0.27.

RRIRVRPPRLPRPRPRPLHEPRP and RRIRVRPPRLPRPRPRPLISPRP are within 0.2 log units of each other in “shrunken log2 fold change” value: -0.0936 for the first, -0.0293 for the second.

RRIRVRPPRLPRPRPRPLIVPRP and RRIRVRPPRLPRPRPRPLKDPRP are within 0.2 log units of each other in “shrunken log2 fold change” value: -0.335 for the first, -0.242 for the second.

RRIRVRPPRLPRPRPRPLKIPRP and RRIRVRPPRLPRPRPRPLLKPRP are within 0.2 log units of each other in “shrunken log2 fold change” value: -0.0769 for the first, 0.0167 for the second.

RRIRVRPPRLPRPRPRPLLVPRP and RRIRVRPPRLPRPRPRPLMDPRP are within 0.2 log units of each other in “shrunken log2 fold change” value: -0.101 for the first, -0.0628 for the second.

RRIRVRPPRLPRPRPRPLNEPRP and RRIRVRPPRLPRPRPRPLNGPRP are within 0.2 log units of each other in “shrunken log2 fold change” value: -0.0647 for the first, 0.103 for the second.

RRIRVRPPRLPRPRPRPLQHPRP and RRIRVRPPRLPRPRPRPLQIPRP are within 0.2 log units of each other in “shrunken log2 fold change” value: -0.177 for the first, -0.0888 for the second.

RRIRVRPPRLPRPRPRPLRLPRP and RRIRVRPPRLPRPRPRPLRRPRP are within 0.2 log units of each other in “shrunken log2 fold change” value: 0.641 for the first, 0.644 for the second.

First: RRIRVRPPRLPRPRPRPLSAPRP
Second: RRIRVRPPRLPRPRPRPLSNPRP
The “shrunken log2 fold change” value of the first is higher: -0.0281 for the first, -0.413 for the second.

RRIRVRPPRLPRPRPRPLSPPRP and RRIRVRPPRLPRPRPRPLSQPRP are within 0.2 log units of each other in “shrunken log2 fold change” value: -0.172 for the first, -0.032 for the second.

RRIRVRPPRLPRPRPRPLVQPRP and RRIRVRPPRLPRPRPRPLYAPRP are within 0.2 log units of each other in “shrunken log2 fold change” value: -0.137 for the first, -0.154 for the second.

First: RRIRVRPPRLPRPRPRPMCNPRP
Second: RRIRVRPPRLPRPRPRPMDPPRP
The “shrunken log2 fold change” value of the first is higher: -0.263 for the first, -0.56 for the second.

RRIRVRPPRLPRPRPRPMEDPRP and RRIRVRPPRLPRPRPRPMEPPRP are within 0.2 log units of each other in “shrunken log2 fold change” value: 0.0593 for the first, 0.0643 for the second.

RRIRVRPPRLPRPRPRPMFFPRP and RRIRVRPPRLPRPRPRPMFHPRP are within 0.2 log units of each other in “shrunken log2 fold change” value: -0.333 for the first, -0.22 for the second.

RRIRVRPPRLPRPRPRPMHEPRP and RRIRVRPPRLPRPRPRPMHQPRP are within 0.2 log units of each other in “shrunken log2 fold change” value: -0.044 for the first, 0.02 for the second.

RRIRVRPPRLPRPRPRPMHTPRP and RRIRVRPPRLPRPRPRPMIAPRP are within 0.2 log units of each other in “shrunken log2 fold change” value: 0.0814 for the first, 0.261 for the second.

RRIRVRPPRLPRPRPRPMKVPRP and RRIRVRPPRLPRPRPRPMMIPRP are within 0.2 log units of each other in “shrunken log2 fold change” value: -0.194 for the first, -0.131 for the second.

Going from RRIRVRPPRLPRPRPRPMNQPRP to RRIRVRPPRLPRPRPRPMNWPRP, the “shrunken log2 fold change” value falls from -0.0672 to -0.474.

RRIRVRPPRLPRPRPRPMPCPRP and RRIRVRPPRLPRPRPRPMPVPRP are within 0.2 log units of each other in “shrunken log2 fold change” value: 0.118 for the first, 0.00602 for the second.

RRIRVRPPRLPRPRPRPMQLPRP and RRIRVRPPRLPRPRPRPMQRPRP are within 0.2 log units of each other in “shrunken log2 fold change” value: -0.0252 for the first, -0.0413 for the second.

In the case of RRIRVRPPRLPRPRPRPMRAPRP, the “shrunken log2 fold change” value was 0.71.

From the supplement of paper PMC9112550, “Optimization of the antimicrobial peptide Bac7 by deep mutational scanning” (BMC Biology, 2022)
